Results from patent publication US20140314744A1 (NEOTOPE BIOSCIENCES, published 2014).

T1: Recombinant human laminin-α4 (R&D systems) (human, UniProt Q16363-2 826-1816)
T1 construct: also called laminin 4A chain; laminin A4 (α4) chain
T1 sequence (looked up): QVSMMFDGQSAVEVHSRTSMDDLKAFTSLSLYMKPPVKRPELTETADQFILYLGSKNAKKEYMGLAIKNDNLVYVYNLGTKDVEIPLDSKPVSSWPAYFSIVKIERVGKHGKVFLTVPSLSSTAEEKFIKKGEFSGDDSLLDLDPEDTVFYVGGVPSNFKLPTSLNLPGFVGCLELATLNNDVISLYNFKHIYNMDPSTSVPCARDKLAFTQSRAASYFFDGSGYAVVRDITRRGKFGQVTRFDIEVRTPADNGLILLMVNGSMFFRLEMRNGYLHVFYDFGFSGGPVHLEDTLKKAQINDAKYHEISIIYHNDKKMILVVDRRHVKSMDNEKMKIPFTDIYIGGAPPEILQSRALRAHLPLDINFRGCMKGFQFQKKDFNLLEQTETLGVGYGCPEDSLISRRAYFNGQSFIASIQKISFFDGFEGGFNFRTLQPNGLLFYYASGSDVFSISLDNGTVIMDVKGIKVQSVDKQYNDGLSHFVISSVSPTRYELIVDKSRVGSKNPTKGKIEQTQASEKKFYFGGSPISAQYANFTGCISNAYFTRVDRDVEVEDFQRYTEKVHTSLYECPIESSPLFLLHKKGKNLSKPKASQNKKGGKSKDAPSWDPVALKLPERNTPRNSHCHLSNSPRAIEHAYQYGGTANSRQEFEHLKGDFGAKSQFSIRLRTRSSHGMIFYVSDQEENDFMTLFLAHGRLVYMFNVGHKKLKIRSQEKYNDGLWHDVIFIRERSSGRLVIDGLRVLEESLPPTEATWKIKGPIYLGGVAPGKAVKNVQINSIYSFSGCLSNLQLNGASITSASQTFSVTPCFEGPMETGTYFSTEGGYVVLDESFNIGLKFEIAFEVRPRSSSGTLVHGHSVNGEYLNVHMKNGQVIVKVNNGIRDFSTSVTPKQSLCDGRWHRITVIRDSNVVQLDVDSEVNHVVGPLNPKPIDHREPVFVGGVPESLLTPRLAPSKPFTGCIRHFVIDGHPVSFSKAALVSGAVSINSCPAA

T2: Murine MCAM domain 1 (Ig1) with human IgG Fc tag (mouse, UniProt Q8R2Y2 24-131, limits assumed)
T2 construct: domain: domain 1 (Ig1); also called MCAM Fc domain 1; not shown: human IgG Fc tag
T2 sequence (looked up): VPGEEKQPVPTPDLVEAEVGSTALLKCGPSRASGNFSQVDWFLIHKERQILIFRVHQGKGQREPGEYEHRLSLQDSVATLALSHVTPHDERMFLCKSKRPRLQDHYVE

T3: Murine MCAM domain 1 and 2 (Ig1-2A) with human IgG Fc tag (mouse, UniProt Q8R2Y2 24-244, limits assumed)
T3 construct: domain: domain 1 and 2 (Ig1-2A); also called MCAM Fc domains 1 and 2; not shown: human IgG Fc tag
T3 sequence (looked up): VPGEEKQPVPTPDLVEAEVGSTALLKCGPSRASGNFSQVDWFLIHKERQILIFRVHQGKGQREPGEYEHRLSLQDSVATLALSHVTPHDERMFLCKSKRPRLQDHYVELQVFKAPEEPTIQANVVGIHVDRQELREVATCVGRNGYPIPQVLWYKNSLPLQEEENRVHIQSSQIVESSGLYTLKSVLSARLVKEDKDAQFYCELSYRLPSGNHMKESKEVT

T4: mouse MCAM (full length, on transfected CHO cells) (mouse, UniProt Q8R2Y2 24-648)
T4 construct: whole, on cells; also called murine MCAM; mouse MCAM transfected CHO cells
T4 sequence (looked up): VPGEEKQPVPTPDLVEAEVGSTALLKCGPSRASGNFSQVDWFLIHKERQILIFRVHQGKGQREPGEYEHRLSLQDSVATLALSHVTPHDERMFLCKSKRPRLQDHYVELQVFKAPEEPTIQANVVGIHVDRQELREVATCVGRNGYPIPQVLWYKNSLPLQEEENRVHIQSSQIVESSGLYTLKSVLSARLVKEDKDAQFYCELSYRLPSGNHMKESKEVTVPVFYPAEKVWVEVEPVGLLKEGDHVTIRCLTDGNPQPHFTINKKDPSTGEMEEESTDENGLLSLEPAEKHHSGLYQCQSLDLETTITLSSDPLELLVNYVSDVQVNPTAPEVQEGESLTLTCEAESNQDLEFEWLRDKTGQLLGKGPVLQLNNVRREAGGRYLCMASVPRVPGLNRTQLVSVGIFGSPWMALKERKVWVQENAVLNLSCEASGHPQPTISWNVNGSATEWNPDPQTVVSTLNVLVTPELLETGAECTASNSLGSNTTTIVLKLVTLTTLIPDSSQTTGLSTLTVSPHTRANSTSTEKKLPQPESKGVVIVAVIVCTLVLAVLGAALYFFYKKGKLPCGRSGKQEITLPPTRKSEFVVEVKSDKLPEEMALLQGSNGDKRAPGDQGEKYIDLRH

T5: murine MCAM-Fc (extracellular domain of murine MCAM fused to human IgG) (mouse, UniProt Q8R2Y2 24-563)
T5 construct: extracellular domain; Produced in CHO cells; also called mouse MCAM-Fc protein; full length mouse MCAMhFc protein; not shown: human IgG (Fc) part
T5 sequence (looked up): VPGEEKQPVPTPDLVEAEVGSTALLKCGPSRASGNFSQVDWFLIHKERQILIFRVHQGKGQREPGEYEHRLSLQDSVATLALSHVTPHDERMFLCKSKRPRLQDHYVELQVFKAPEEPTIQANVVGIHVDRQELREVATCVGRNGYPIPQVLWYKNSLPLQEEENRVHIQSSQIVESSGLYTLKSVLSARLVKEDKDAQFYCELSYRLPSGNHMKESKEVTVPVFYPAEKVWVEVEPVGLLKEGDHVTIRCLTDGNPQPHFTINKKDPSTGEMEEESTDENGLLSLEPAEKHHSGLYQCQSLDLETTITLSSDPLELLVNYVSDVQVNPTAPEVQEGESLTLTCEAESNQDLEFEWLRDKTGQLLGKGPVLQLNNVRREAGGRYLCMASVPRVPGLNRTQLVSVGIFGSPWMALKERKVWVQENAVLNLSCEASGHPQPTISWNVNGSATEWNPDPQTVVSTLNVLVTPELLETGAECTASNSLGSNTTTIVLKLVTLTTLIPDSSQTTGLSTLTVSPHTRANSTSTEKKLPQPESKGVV

T6: human MCAM (on transfected cells) (human, UniProt P43121 24-646)
T6 construct: Cells transfected with human MCAM; also called CD146; MUC18
T6 chain: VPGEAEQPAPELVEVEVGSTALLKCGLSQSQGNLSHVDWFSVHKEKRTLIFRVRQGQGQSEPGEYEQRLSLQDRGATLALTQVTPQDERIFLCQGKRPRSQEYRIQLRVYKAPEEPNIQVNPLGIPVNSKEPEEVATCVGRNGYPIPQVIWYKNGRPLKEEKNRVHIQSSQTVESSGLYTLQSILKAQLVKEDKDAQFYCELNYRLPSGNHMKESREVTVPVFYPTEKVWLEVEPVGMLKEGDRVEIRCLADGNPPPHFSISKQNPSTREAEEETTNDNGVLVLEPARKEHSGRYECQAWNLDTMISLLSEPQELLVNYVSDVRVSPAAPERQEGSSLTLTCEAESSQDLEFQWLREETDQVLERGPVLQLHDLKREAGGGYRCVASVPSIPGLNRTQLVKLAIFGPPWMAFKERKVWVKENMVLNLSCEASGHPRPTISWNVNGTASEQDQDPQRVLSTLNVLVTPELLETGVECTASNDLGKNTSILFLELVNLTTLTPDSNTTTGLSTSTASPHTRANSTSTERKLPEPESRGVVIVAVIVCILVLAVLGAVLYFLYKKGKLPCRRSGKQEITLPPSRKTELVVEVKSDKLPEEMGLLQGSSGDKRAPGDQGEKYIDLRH

T7: Ig2 domain (mouse, UniProt Q8R2Y2)
T7 construct: immunoglobulin domain 2 alone; also called Murine MCAM domain 2 (Ig2)
T7 sequence (Fc fusion chain, looked up): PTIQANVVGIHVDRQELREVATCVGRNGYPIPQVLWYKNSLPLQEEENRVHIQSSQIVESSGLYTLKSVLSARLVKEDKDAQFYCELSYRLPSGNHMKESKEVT


Experiments:
[1] = molecular target: T1, Recombinant human laminin-α4 (R&D …); assay: SPR (Biacore T200)
[2] = molecular target: T8, Recombinant human laminin 511 (Biolamina) (human, UniProt O15230 36-3695; P07942 22-1786; P11047 34-1609); assay: SPR (Biacore T200)
T8 construct: Trimer α5β1γ1, bought; negative control

[3] = molecular target: T2, Murine MCAM domain 1 (Ig1) with human …; assay: ForteBio Octet Red, domains on anti-human IgG Fc biosensors
Source text: (§1) The following protocol was used: ForteBio Domain Mapping Protocol. ForteBio anti-human IgG Fc biosensors were used to immobilize various mouse MCAMhFc domains including full length mouse MCAMhFc protein on to biosensor surface. These sensors were dipped into either clone 15 or 17 MCAM specific antibody for detection of binding to these domains or full length protein. After loading these samples into a black 96 well plate, the Octet Red was programmed as follows: 60 seconds for baseline #1; 180 seconds for loading various domains; 60 seconds for baseline #2; 180 seconds for association of antibody to domain; and 240 seconds for dissociation of antibody from domain.

[4] = molecular target: T3, Murine MCAM domain 1 and 2 (Ig1-2A) …; assay: as above
Source text: as §1

[5] = molecular target: T4, mouse MCAM (full length, on transfected …); assay: flow cytometry on MCAM transfected cells mixed with CFSE-labelled untransfected cells
Description: MCAM-Fc was generated by fusing the extracellular domain of murine MCAM to human IgG and produced in CHO cells using standard techniques. Lou/M rats were immunized with 100 μg of MCAM-Fc protein in CFA (1:1 volume). Rats were boosted two times at two week intervals with MCAM-Fc protein in incomplete Freund's adjuvant (IFA) (1:1 volume). Hybridomas were generated from immunized rats using standard protocols and clones were selected by Clonepix. CHO cells were transfected with the full length murine MCAM gene and selected for stable expression using neomycin and standard techniques. Parental CHO cells (MCAM negative) were fluorescently labeled with carboxyfluorescein succinimidyl ester (CFSE) using standard techniques and mixed at a 1:1 ratio with unlabeled MCAM transfected CHO cells. Hybridoma supernatants were incubated with this mixture of cells for 30 minutes and binding of potential MCAM specific antibodies was detected with a fluorescently labeled anti-rat secondary antibody (Jackson Immuno) by flow cytometry.
(§2) Monoclonal antibodies against mouse MCAM were generated as described in Materials and Methods above. The specific binding between the monoclonal antibody and MCAM was confirmed by assessing the monoclonal antibody's ability to bind to cells transfected with either mouse or human MCAM. For this, untransfected cells were labeled with carboxyfluorescein succinimidyl ester (CFSE) and mixed with unlabeled MCAM transfected cells. Untransfected cells (in blue) could therefore be differentiated.

[6] = molecular target: T5, murine MCAM-Fc (extracellular domain of …); assay: ForteBio Octet Red, anti-human IgG Fc biosensor loaded with mouse MCAMhFc (5 ug/ml), dipped into clone 15 (5 ug/ml) or SP2 media
Source text: as §1
(§3) For FIG. 10A-B, clones 15 and 17 were tested against the following protein samples (all have human IgG Fc tag): […]

[7] = molecular target: T6, human MCAM (on transfected cells); assay: flow cytometry on human MCAM transfected cells mixed with CFSE-labelled untransfected cells
Source text: as §2

[8] = molecular target: T7, Ig2 domain; assay: ForteBio Octet Red, anti-human IgG Fc biosensor loaded with the Ig2 domain hFc protein, dipped into clone 15 or SP2 media
Source text: as §1, §3

| Binder | binding result [1] | binding result [2] | binding result [3] | binding result [4] | binding result [5] | binding result [6] | binding result [7] | binding result [8] |
| --- | --- | --- | --- | --- | --- | --- | --- | --- |
| MCAM Fc domain 1 alone (Example 9) (Fc fusion, not shown: Fc tag; not described) PRVAGVPGEAEQPAPELVEVEVGSTALLKCGLSQSQGNLSHVDWFSVHKEKRTLIFRVRQGQGQSEPGEYEQRLSLQDRGATLALTQVTPQDERIFLCQGKRPRSQEYRIQ | no binding (tested: 5-175 nM) | no binding (tested: 5-175 nM) | – | – | – | – | – | – |
| clone 15 monoclonal antibody (rat anti-MCAM) (antibody, V domains shown, Rat monoclonal from a hybridoma; also called anti-MCAM antibody (clone 15)) VH: EVRLVESGGGLVQPGKSMKLSCVASGFKFSNYYMSWVRQAPAKGLEWVASISDGGGDTFCRDLVKGRFTISRDNAKSTLYLQMDSLRPEDTATYYCARRGAAMGGVMDAWGQGTSVTVSS VL: DIVMTQSPSSLAVSAGETVSIHCKSSQSLLYSGTQKNYLAWFQQKPGQSPKLLIFWASTRQSGVPDRFIGRGSGTDFTLTISGVQAEDLAIYYCQQYYDTLTDTFGAGTKLELKR | – | – | no binding (tested: 5 ug/ml) | binds | binds | binds | no binding | no binding (tested: 5 ug/ml) |
